# Assay results as given in patent publication US20100333236A1.
# “And” between values parts separate entries of the source, which are not always exact repeats. Identical values can stand only once. Like-named read-outs stand apart in the source and are kept apart here.
# Legend:
# Assay in all cases: cell-based or functional assay
# [1] = molecular target: cysteine-like cathepsin-B protease activities from Leptinotarsa decemlineata (Colorado potato beetle) gut extracts (Leptinotarsa decemlineata)
# [2] = molecular target: cysteine-like cathepsin-B protease activities from extracts of adults of Acyrthosiphon pisum (pea aphid) (Acyrthosiphon pisum)
# [3] = molecular target: cysteine-like cathepsin-L protease activities from Leptinotarsa decemlineata (Colorado potato beetle) gut extracts (Leptinotarsa decemlineata)
# [4] = molecular target: cysteine-like cathepsin-L protease activities from extracts of adults of Acyrthosiphon pisum (pea aphid) (Acyrthosiphon pisum)
# [5] = molecular target: cysteine-like cathepsin-L protease activities from extracts of adults of Bemisia tabaci (sweetpotato whitefly) (Bemisia tabaci)
# [6] = molecular target: cysteine-like cathepsin-L protease activities from extracts of adults of Tetranychus urticae (spider mites) (Tetranychus urticae)
# [7] = molecular target: cysteine-like cathepsin-L protease activities from extracts of adults of Tribolium castaneum (red flour beetle) (Tribolium castaneum)
# [8] = molecular target: serine-like chymotrypsin protease activities from Sesamia nonagrioides (Mediterranean corn borer) larval gut extracts (Sesamia nonagrioides)
# [9] = molecular target: serine-like chymotrypsin protease activities from Spodoptera littoralis (cotton leafworm) larval gut extracts (Spodoptera littoralis)
# [10] = molecular target: serine-like elastase protease activities from Ostrinia nubilalis (European corn borer) larval gut extracts (Ostrinia nubilalis)
# [11] = molecular target: serine-like trypsin protease activities from Ostrinia nubilalis (European corn borer) larval gut extracts (Ostrinia nubilalis)
# [12] = molecular target: serine-like trypsin protease activities from Spodoptera littoralis (cotton leafworm) larval gut extracts (Spodoptera littoralis)
# [13] = molecular target: serine-like trypsin protease activities from Sesamia nonagrioides (Mediterranean corn borer) larval gut extracts (Sesamia nonagrioides)
# [14] = molecular target: cysteine-like cathepsin-B protease activities from Leptinotarsa decemlineata (Colorado potato beetle) gut extracts (Leptinotarsa decemlineata); remark: listed apart in the source
# [15] = molecular target: cysteine-like cathepsin-B protease activities from extracts of adults of Acyrthosiphon pisum (pea aphid) (Acyrthosiphon pisum); remark: listed apart in the source
# [16] = molecular target: cysteine-like cathepsin-L protease activities from Leptinotarsa decemlineata (Colorado potato beetle) gut extracts (Leptinotarsa decemlineata); remark: listed apart in the source
# [17] = molecular target: cysteine-like cathepsin-L protease activities from extracts of adults of Acyrthosiphon pisum (pea aphid) (Acyrthosiphon pisum); remark: listed apart in the source
# [18] = molecular target: cysteine-like cathepsin-L protease activities from extracts of adults of Bemisia tabaci (sweetpotato whitefly) (Bemisia tabaci); remark: listed apart in the source
# [19] = molecular target: cysteine-like cathepsin-L protease activities from extracts of adults of Tetranychus urticae (spider mites) (Tetranychus urticae); remark: listed apart in the source
# [20] = molecular target: cysteine-like cathepsin-L protease activities from extracts of adults of Tribolium castaneum (red flour beetle) (Tribolium castaneum); remark: listed apart in the source
# [21] = molecular target: serine-like chymotrypsin protease activities from Spodoptera littoralis (cotton leafworm) larval gut extracts (Spodoptera littoralis); remark: listed apart in the source
# [22] = molecular target: serine-like trypsin protease activities from Ostrinia nubilalis (European corn borer) larval gut extracts (Ostrinia nubilalis); remark: listed apart in the source
# [23] = molecular target: serine-like trypsin protease activities from Sesamia nonagrioides (Mediterranean corn borer) larval gut extracts (Sesamia nonagrioides); remark: listed apart in the source
# [24] = molecular target: serine-like trypsin protease activities from Spodoptera littoralis (cotton leafworm) larval gut extracts (Spodoptera littoralis); remark: listed apart in the source
molecule,measurement,setting,value
AtSerpin1 mutant IKLA (SEQ ID NO:3) (from UniProt Q9S7T8 1-391),"% Inhibition, Cathepsin-B, 1.25 µM serpin",[1],62%
same,"% Inhibition, Cathepsin-B, 5 µM serpin",[1],77%
same,"% Inhibition, Cathepsin-B, 10 µM serpin",[1],70%
same,"% Inhibition, Cathepsin-B, 1.25 µM serpin",[2],24%
same,"% Inhibition, Cathepsin-B, 5 µM serpin",[2],31%
same,"% Inhibition, Cathepsin-B, 10 µM serpin",[2],36%
same,"% Inhibition, Cathepsin-L, 1.25 µM serpin",[3],18%
same,"% Inhibition, Cathepsin-L, 5 µM serpin",[3],44%
same,"% Inhibition, Cathepsin-L, 10 µM serpin",[3],66%
same,"% Inhibition, Cathepsin-L, 1.25 µM serpin",[4],24%
same,"% Inhibition, Cathepsin-L, 5 µM serpin",[4],34%
same,"% Inhibition, Cathepsin-L, 10 µM serpin",[4],45%
same,"% Inhibition, Cathepsin-L, 0.16 µM serpin",[5],3%
same,"% Inhibition, Cathepsin-L, 0.31 µM serpin",[5],10%
same,"% Inhibition, Cathepsin-L, 0.63 µM serpin",[5],15%
same,"% Inhibition, Cathepsin-L, 1.25 µM serpin",[5],27%
same,"% Inhibition, Cathepsin-L, 2.5 µM serpin",[5],38%
same,"% Inhibition, Cathepsin-L, 5 µM serpin",[5],48%
same,"% Inhibition, Cathepsin-L, 10 µM serpin",[5],60%
same,"% Inhibition, Cathepsin-L, 20 µM serpin",[5],70%
same,IC50 of cathepsin-L activity inhibition (FIG. 6),[5],5 µM
same,"fold activity against AtSerpin1, cathepsin-L inhibition (FIG. 6)",[5],5 times and 10 times
same,"% Inhibition, Cathepsin-L, 0.02 µM serpin",[6],9%
same,"% Inhibition, Cathepsin-L, 0.04 µM serpin",[6],11%
same,"% Inhibition, Cathepsin-L, 0.08 µM serpin",[6],12%
same,"% Inhibition, Cathepsin-L, 0.16 µM serpin",[6],22%
same,"% Inhibition, Cathepsin-L, 0.31 µM serpin",[6],33%
same,"% Inhibition, Cathepsin-L, 0.63 µM serpin",[6],44%
same,"% Inhibition, Cathepsin-L, 1.25 µM serpin",[6],51%
same,"% Inhibition, Cathepsin-L, 2.5 µM serpin",[6],59%
same,"% Inhibition, Cathepsin-L, 5 µM serpin",[6],71%
same,"% Inhibition, Cathepsin-L, 10 µM serpin",[6],75%
same,"% Inhibition, Cathepsin-L, 20 µM serpin",[6],79%
same,IC50 of cathepsin-L activity inhibition (FIG. 7),[6],< 1 µM
same,"fold activity against AtSerpin1, cathepsin-L inhibition (FIG. 7)",[6],2 times and 3 times
same,"% Inhibition, Cathepsin-L, 0.08 µM serpin",[7],12%
same,"% Inhibition, Cathepsin-L, 0.16 µM serpin",[7],32%
same,"% Inhibition, Cathepsin-L, 0.31 µM serpin",[7],57%
same,"% Inhibition, Cathepsin-L, 0.63 µM serpin",[7],63%
same,"% Inhibition, Cathepsin-L, 1.25 µM serpin",[7],68%
same,"% Inhibition, Cathepsin-L, 2.5 µM serpin",[7],68%
same,"% Inhibition, Cathepsin-L, 5 µM serpin",[7],72%
same,"% Inhibition, Cathepsin-L, 10 µM serpin",[7],70%
same,"% Inhibition, Cathepsin-L, 20 µM serpin",[7],76%
same,IC50 of cathepsin-L activity inhibition (FIG. 4),[7],0.2 to 0.3 µM
same,"fold activity against AtSerpin1, cathepsin-L inhibition (FIG. 4)",[7],> 10 times
same,"% Inhibition, Chymotrypsin, 5 µM serpin",[8],32%
same,"% Inhibition, Chymotrypsin, 10 µM serpin",[8],70%
same,"% Inhibition, Chymotrypsin, 1.25 µM serpin",[9],11%
same,"% Inhibition, Chymotrypsin, 5 µM serpin",[9],41%
same,"% Inhibition, Chymotrypsin, 10 µM serpin",[9],56%
same,"% Inhibition, Elastase, 2 µM serpin",[10],21%
same,"% Inhibition, Trypsin, 2 µM serpin",[11],51%
same,"% Inhibition, Trypsin, 1.25 µM serpin",[12],18%
same,"% Inhibition, Trypsin, 5 µM serpin",[12],32%
same,"% Inhibition, Trypsin, 10 µM serpin",[12],40%
AtSerpin1 mutant IKLK (SEQ ID NO:7) (from UniProt Q9S7T8 1-391),"% Inhibition, Cathepsin-B, 5 µM serpin",[2],49%
same,"% Inhibition, Cathepsin-B, 10 µM serpin",[2],66%
same,"% Inhibition, Trypsin, 5 µM serpin",[12],64%
same,"% Inhibition, Trypsin, 10 µM serpin",[12],69%
AtSerpin1 mutant IRPR (SEQ ID NO:5) (from UniProt Q9S7T8 1-391),"% Inhibition, Cathepsin-B, 1.25 µM serpin",[2],32%
same,"% Inhibition, Cathepsin-L, 1.25 µM serpin",[4],31%
same,"% Inhibition, Cathepsin-L, 1.25 µM serpin",[6],11%
same,"% Inhibition, Cathepsin-L, 1.25 µM serpin",[7],73%
same,"% Inhibition, Trypsin, 1.25 µM serpin",[13],38%
AtSerpin1 mutant VRPR (SEQ ID NO:4) (from UniProt Q9S7T8 1-391),"% Inhibition, Cathepsin-B, 1.25 µM serpin",[2],27%
same,"% Inhibition, Cathepsin-B, 5 µM serpin",[2],14%
same,"% Inhibition, Cathepsin-B, 10 µM serpin",[2],23%
same,"% Inhibition, Cathepsin-L, 1.25 µM serpin",[4],16%
same,"% Inhibition, Cathepsin-L, 1.25 µM serpin",[6],22%
same,"% Inhibition, Cathepsin-L, 1.25 µM serpin",[7],38%
same,"% Inhibition, Trypsin, 5 µM serpin",[12],33%
same,"% Inhibition, Trypsin, 10 µM serpin",[12],34%
AtSerpin1 mutant WRHR (SEQ ID NO:6) (from UniProt Q9S7T8 1-391),"% Inhibition, Cathepsin-B, 1.25 µM serpin",[2],26%
same,"% Inhibition, Cathepsin-L, 1.25 µM serpin",[6],8%
"AtSerpin1 (wild-type Serpin1 from Arabidopsis thaliana, At1g47710), recombinant HIS6-tagged (protein, not shown: small tags and cut ends) MDVRESISLQNQVSMNLAKHVITTVSQNSNVIFSPASINVVLSIIAAGSAGATKDQILSFLKFSSTDQLNSFSSEIVSAVLADGSANGGPKLSVANGAWIDKSLSFKPSFKQLLEDSYKAASNQADFQSKAVEVIAEVNSWAEKETNGLITEVLPEGSADSMTKLIFANALYFKGTWNEKFDESLTQEGEFHLLDGNKVTAPFMTSKKKQYVSAYDGFKVLGLPYLQGQDKRQFSMYFYLPDANNGLSDLLDKIVSTPGFLDNHIPRRQVKVREFKIPKFKFSFGFDASNVLKGLGLTSPFSGEEGLTEMVESPEMGKNLCVSNIFHKACIEVNEEGTEAAAASAGVIKLRGLLMEEDEIDFVADHPFLLVVTENITGVVLFIGQVVDPLH","% Inhibition, Cathepsin-B, 1.25 µM serpin",[14],40%
same,"% Inhibition, Cathepsin-B, 5 µM serpin",[14],47%
same,"% Inhibition, Cathepsin-B, 10 µM serpin",[14],46%
same,concentration for 50% inhibition of cathepsin-B activity (FIG. 3),[14],> 10 µM
same,"% Inhibition, Cathepsin-B, 1.25 µM serpin",[15],50%
same,"% Inhibition, Cathepsin-B, 5 µM serpin",[15],55%
same,"% Inhibition, Cathepsin-B, 10 µM serpin",[15],55%
same,concentration for 50% inhibition of cathepsin-B activity (FIG. 5),[15],1 µM
same,"% Inhibition, Cathepsin-L, 1.25 µM serpin",[16],4%
same,"% Inhibition, Cathepsin-L, 5 µM serpin",[16],34%
same,"% Inhibition, Cathepsin-L, 10 µM serpin",[16],48%
same,"concentration for 50% inhibition of cathepsin-L activity (fluorometric substrates, FIG. 3)",[16],10 µM
same,"% Inhibition, Cathepsin-L, 1.25 µM serpin",[17],42%
same,"% Inhibition, Cathepsin-L, 5 µM serpin",[17],42%
same,"% Inhibition, Cathepsin-L, 10 µM serpin",[17],39%
same,"inhibition of cathepsin-L activity, plateau (FIG. 5)",[17],40%
same,"% Inhibition, Cathepsin-L, 2.5 µM serpin",[18],7%
same,"% Inhibition, Cathepsin-L, 5 µM serpin",[18],20%
same,"% Inhibition, Cathepsin-L, 10 µM serpin",[18],34%
same,"% Inhibition, Cathepsin-L, 20 µM serpin",[18],43%
same,% inhibition of cathepsin-L activity at 20 µM serpin (FIG. 6),[18],45%
same,"% Inhibition, Cathepsin-L, 0.16 µM serpin",[19],10%
same,"% Inhibition, Cathepsin-L, 0.31 µM serpin",[19],13%
same,"% Inhibition, Cathepsin-L, 0.63 µM serpin",[19],17%
same,"% Inhibition, Cathepsin-L, 1.25 µM serpin",[19],32%
same,"% Inhibition, Cathepsin-L, 2.5 µM serpin",[19],48%
same,"% Inhibition, Cathepsin-L, 5 µM serpin",[19],58%
same,"% Inhibition, Cathepsin-L, 10 µM serpin",[19],67%
same,"% Inhibition, Cathepsin-L, 20 µM serpin",[19],73%
same,concentration for 50% inhibition of cathepsin-L activity (FIG. 7),[19],2 µM
same,"% Inhibition, Cathepsin-L, 2.5 µM serpin",[20],16%
same,"% Inhibition, Cathepsin-L, 5 µM serpin",[20],68%
same,"% Inhibition, Cathepsin-L, 10 µM serpin",[20],73%
same,"% Inhibition, Cathepsin-L, 20 µM serpin",[20],76%
same,IC50 of cathepsin-L activity inhibition (FIG. 4),[20],4 µM
same,"% Inhibition, Chymotrypsin, 1.25 µM serpin",[21],10%
same,"% Inhibition, Chymotrypsin, 5 µM serpin",[21],31%
same,"% Inhibition, Chymotrypsin, 10 µM serpin",[21],40%
same,concentration for 50% inhibition of chymotrypsin activity (FIG. 1),[21],10 to 20 µM
same,"% Inhibition, Trypsin, 2 µM serpin",[22],28%
same,"% Inhibition, Trypsin, 1.25 µM serpin",[23],90%
same,"% Inhibition, Trypsin, 5 µM serpin",[23],97%
same,"% Inhibition, Trypsin, 10 µM serpin",[23],98%
same,concentration for 50% inhibition of trypsin activity (FIG. 2),[23],0.1 µM
same,"% Inhibition, Trypsin, 1.25 µM serpin",[24],52%
same,"% Inhibition, Trypsin, 5 µM serpin",[24],83%
same,"% Inhibition, Trypsin, 10 µM serpin",[24],90%
same,"concentration for 50% inhibition of trypsin activity (fluorometric substrate, FIG. 1)",[24],1 µM
